Data reported in patent US8163734B2, “Use of a mast cell activation or degranulation blocking agent in the manufacture of a medicament for the treatment of a patient subjected to thrombolyses” (priority 2004, dated 2012).
Entries after “also recorded” stand apart in the source; their conditions may differ.

Assays:
[1] = system: spontaneous intraventricular bleedings; details: in vivo; cited from earlier work
[2] = system: middle cerebral artery occlusion (MCAO) in rats; assay: 90 min middle cerebral artery occlusion with r-TPA 10 mg/kg infusion; brains dissected 4.5 h after reperfusion (Example 2); type: in vivo, rat
Procedure: Rats were given 10 mg/kg of r-TPA, which is considered equivalent to the typical dose given to humans in thrombolysis in stroke and myocardial infarction. Two timings of r-TPA were used to investigate in rat brain the hemorrhagic conversion of infarction, the single most serious complication and hazard in clinical thrombolytic therapy. The group termed r-TPA+saline received 1-hour infusiuon of r-TPA starting 5 minutes (10% as bolus) prior to reperfusion after 90 min of middle cerebral artery occlusion (MCAO), whereas the group saline+r-TPA received r-TPA starting 1 hour after the reperfusion after 90 min of MCAO. […] Brains were dissected at 4.5 hours after reperfusion. Areas of hemorrhage were measured by microscopical image analysis on six histological sections cut through the hemispheres and added together (cf. FIG. 3)
The polymorphonuclear leukocytes (neutrophils, shown in bars, left Y-axis, of FIG. 4) were calculated on the section encompassing the basal ganglia, infarct core and penumbra.
They were also treated with 10 mg/kg of r-TPA in a 1-hour infusion starting […] (10% as bolus) before reperfusion, a dose equivalent to that used clinically in thrombolysis of human stroke and myocardial infarction. Brains were dissected at 4.5 hours after reperfusion. The amount of brain edema was measured by quantitating the areas of hemispheres on histological sections with microscopical image analysis.
In the lower panel, the total area of hemorrhagic conversion was quantitated in six sections cut through the hemispheres.

[3] = system: rat peritoneal mast cells; assay: Degranulation of rat peritoneal mast cells ex vivo; type: cell-based

Which results are given for “r-TPA: alteplase (recombinant tissue plasminogen activator), a serine protease leading to plasmin formation”?
rates of secondary brain hemorrhages [1]: more than doubles; neutrophil density ([2]; both r-TPA groups compared to sham-operated rats): significantly increased; hemorrhage formation in rat brain ([2]; r-TPA 10 mg/kg, started 5 min before or 1 hour after reperfusion, vs sham operated or saline-treated controls): substantial hemorrhage formation; also recorded: significant hemorrhage formation; increase in total number of neutrophils in the tissue, ischemic hemisphere ([2]; r-TPA infusion): up to 3 fold; increase in total number of neutrophils in the tissue, non-infarcted hemisphere ([2]; r-TPA infusion): up to 5 fold; degranulation of cells consistent with mast cell morphology, non-ischemic hemisphere ([2]; r-TPA infusion 5 minutes before reperfusion, 90 minute ischemia): up to 60%; degranulation of cells consistent with mast cell morphology, ischemic hemisphere ([2]; r-TPA infusion 5 minutes before reperfusion, 90 minute ischemia, up to 50% without r-TPA): up to 70%; degranulation of rat peritoneal mast cells [3]: degranulated
